Data reported in FireProtDB (doi:10.1016/s0014-5793(98)01666-4).
“And” between values parts separate entries of the source, which are not always exact repeats. Equal entries are not always repeated.

Details: Rattus norvegicus, pH 7.4, Thermal, DSC, EDTA 10 mM, NaCl 0.20 M, transition: 2, reversible: yes, whole UniProt chain shown

B1: Parvalbumin alpha wild type, P02625 (protein)
chain: MSMTDLLSAEDIKKAIGAFTAADSFDHKKFFQMVGLKKKSADDVKKVFHILDKDKSGFIEEDELGSILKGFSSDARDLSAKETKTLMAAGDKDGDGKIGVEEFSTLVAES
unfolding enthalpy (calorimetric) (25 °C): 70 kcal/mol and 75 kcal/mol
unfolding enthalpy (van 't Hoff) (25 °C): 71 kcal/mol and 74 kcal/mol
unfolding free energy (25 °C): 3.5 kcal/mol and 4.7 kcal/mol
Tm: 53.6 °C
unfolding enthalpy (calorimetric): 75 kcal/mol
unfolding enthalpy (van 't Hoff): 74 kcal/mol
